Paper PMC8265735 (Biopolymers, 2021)
Read-outs that look alike come from different tables or passages of the source.

Tests used:
SAXS [1] = target: the molecule itself; test: SAXS
SAXS [2] = target: the molecule itself; test: SAXS; remark: listed apart in the source

B1: Hemoglobin III (HbIII) from Lucina pectinata, oxy form (natural protein, Lucina pectinata (Phacoides pectinatus), UniProt P41262 1-153, looked up)
chain: MSSGLTGPQKAALKSSWSRFMDNAVTNGTNFYMDLFKAYPDTLTPFKSLFEDVSFNQMTDHPTMKAQALVFCDGMSSFVDNLDDHEVLVVLLQKMAKLHFNRGIRIKELRDGYGVLLRYLEDHCHVEGSTKNAWEDFIAYICRVQGDFMKERL
SAXS [1]
  stoichiometry N: 2
SAXS [2]
  stoichiometry N: 4
